Source: patent EP4792821A2 (Beijing Youcare Kechuang Pharmaceutical Technology Co., Ltd., dated 2026)
*1 amine or outer side, *2 acyl side, *3 side chain or, on linkers, in order; H or OH if unused. Side-chain parts run from the residue outwards. The star is where a group is joined. Succinyl(4-O-cholesteryl) = CC(C)CCC[C@@H](C)[C@H]1CC[C@H]2[C@@H]3CC=C4C[C@@H](OC(=O)CCC(=O)*)CC[C@]4(C)[C@H]3CC[C@]12C; Suc = O=C(CCC(=O)[*:2])[*:1]

B1: Compound 22 (peptide)
peptide: Ac-DEFDKKKIEEVNKKIEESLKKIEESDKKLEEVEAAAKK([Suc-Succinyl(4-O-cholesteryl)])-NH2
B2: Compound 41 (peptide)
peptide: Ac-WDEFDKKIEEVNKKIEESLKKIEESDKKLEEVNEAAAKK([Suc-Succinyl(4-O-cholesteryl)])-NH2
B3: Compound 17 (peptide)
peptide: Ac-DEFDKKIEEVNKKIEESLKKIEESDKKLEAAAKK(Succinyl(4-O-cholesteryl))-NH2
B4: Compound 26 (peptide)
peptide: Ac-FDEEISQVNEKINQSLAFIRKSDELLHNVNAGKSTTEAAAKK([Suc-Succinyl(4-O-cholesteryl)])-NH2
B5: Compound 38 (peptide)
peptide: Ac-WDEFDASISQVNEKINQSLEEIRKSDELLHNVNALEAAAKK([Suc-Succinyl(4-O-cholesteryl)])-NH2
B6: Compound 14 (peptide)
peptide: Ac-DEFDKKIEEVNKKIEESLKKIEESDKKLEEVNEAAAKK([Suc-Succinyl(4-O-cholesteryl)])-NH2
B7: Compound 45 (peptide)
peptide: Ac-WDEFDASISQVNEKINQSLEEIRKSDELLHNEAAAKK(Succinyl(4-O-cholesteryl))-NH2
SMILES: CC[C@H](C)[C@H](NC(=O)[C@H](CO)NC(=O)[C@H](C)NC(=O)[C@H](CC(=O)O)NC(=O)[C@H](Cc1ccccc1)NC(=O)[C@H](CCC(=O)O)NC(=O)[C@H](CC(=O)O)NC(=O)[C@H](Cc1c[nH]c2ccccc12)NC(C)=O)C(=O)N[C@@H](CO)C(=O)N[C@@H](CCC(N)=O)C(=O)N[C@H](C(=O)N[C@@H](CC(N)=O)C(=O)N[C@@H](CCC(=O)O)C(=O)N[C@@H](CCCCN)C(=O)N[C@H](C(=O)N[C@@H](CC(N)=O)C(=O)N[C@@H](CCC(N)=O)C(=O)N[C@@H](CO)C(=O)N[C@@H](CC(C)C)C(=O)N[C@@H](CCC(=O)O)C(=O)N[C@@H](CCC(=O)O)C(=O)N[C@H](C(=O)N[C@@H](CCCNC(=N)N)C(=O)N[C@@H](CCCCN)C(=O)N[C@@H](CO)C(=O)N[C@@H](CC(=O)O)C(=O)N[C@@H](CCC(=O)O)C(=O)N[C@@H](CC(C)C)C(=O)N[C@@H](CC(C)C)C(=O)N[C@@H](Cc1c[nH]cn1)C(=O)N[C@@H](CC(N)=O)C(=O)N[C@@H](CCC(=O)O)C(=O)N[C@@H](C)C(=O)N[C@@H](C)C(=O)N[C@@H](C)C(=O)N[C@@H](CCCCN)C(=O)N[C@@H](CCCCNC(=O)CCC(=O)O[C@H]1CC[C@@]2(C)C(=CC[C@H]3[C@@H]4CC[C@H]([C@H](C)CCCC(C)C)[C@@]4(C)CC[C@@H]32)C1)C(N)=O)[C@@H](C)CC)[C@@H](C)CC)C(C)C
B8: Compound 13 (peptide)
peptide: Ac-WDEFDKKIEEVNKKIEESLKKIEESDKKLEAAAKK([Suc-Succinyl(4-O-cholesteryl)])-NH2
B9: Compound 40 (peptide)
peptide: Ac-WDEFDKKIEEVNKKIEESLKKIEESDKKLEEVNAEAAAKK([Suc-Succinyl(4-O-cholesteryl)])-NH2
B10: Compound 27 (peptide)
peptide: Ac-WDEFDASISQVNEKINQSLEEIRKSDELLHNVNAGLGSGSGK([Suc-Succinyl(4-O-cholesteryl)])-NH2
B11: Compound 25 (peptide)
peptide: Ac-YDELVFDASQVNEKINQSLEKIRKSDELLHNVGSGSGK([Suc-Succinyl(4-O-cholesteryl)])-NH2
B12: Compound 20 (peptide)
peptide: Ac-SDEFDKKIEEVNKKIEESLKKIEESDKKLGSGSGK([Suc-Succinyl(4-O-cholesteryl)])-NH2
B13: Compound 30 (peptide)
peptide: Ac-YDELVFDASQVNEKINQSLEKIRKSDELLHNVEAAAKK([Suc-Succinyl(4-O-cholesteryl)])-NH2
B14: Compound 51 (peptide)
peptide: Ac-SDELVNKKIEFDKKINQSLKKIEESDKKKLEAAAKK-NH2
B15: Compound 21 (peptide)
peptide: Ac-DEFDKKIEEVNKKIEESLKKIEESDKKLEEVEAAAKK([Suc-Succinyl(4-O-cholesteryl)])-NH2
B16: Compound 50 (peptide)
peptide: Ac-SLEQVNEKINQSLAFIRKSDEINQSDEEVNKSDELLEAAAKK-NH2
B17: Compound 16 (peptide)
peptide: Ac-SDEFDKKIEEVNKKIEESLKKIEESDKKLEAAAKK([Suc-Succinyl(4-O-cholesteryl)])-NH2
B18: Compound 28 (peptide)
peptide: Ac-DEFDASISQVNEKINQSLEEIRKSDELLHNEAAAKK([Suc-Succinyl(4-O-cholesteryl)])-NH2
B19: Compound 29 (peptide)
peptide: Ac-LVKKIDEFDASISQVNEKINQSLEEIRKSDELLHNVGSGSGK([Suc-Succinyl(4-O-cholesteryl)])-NH2

Each binder was assayed against F protein of RSV A long virus strain (Respiratory Syncytial Virus (RSV) A …, UniProt P12568 26-574) (assay: cell-based or functional assay).
Sequence of F protein of RSV A long virus strain (P12568 26-574): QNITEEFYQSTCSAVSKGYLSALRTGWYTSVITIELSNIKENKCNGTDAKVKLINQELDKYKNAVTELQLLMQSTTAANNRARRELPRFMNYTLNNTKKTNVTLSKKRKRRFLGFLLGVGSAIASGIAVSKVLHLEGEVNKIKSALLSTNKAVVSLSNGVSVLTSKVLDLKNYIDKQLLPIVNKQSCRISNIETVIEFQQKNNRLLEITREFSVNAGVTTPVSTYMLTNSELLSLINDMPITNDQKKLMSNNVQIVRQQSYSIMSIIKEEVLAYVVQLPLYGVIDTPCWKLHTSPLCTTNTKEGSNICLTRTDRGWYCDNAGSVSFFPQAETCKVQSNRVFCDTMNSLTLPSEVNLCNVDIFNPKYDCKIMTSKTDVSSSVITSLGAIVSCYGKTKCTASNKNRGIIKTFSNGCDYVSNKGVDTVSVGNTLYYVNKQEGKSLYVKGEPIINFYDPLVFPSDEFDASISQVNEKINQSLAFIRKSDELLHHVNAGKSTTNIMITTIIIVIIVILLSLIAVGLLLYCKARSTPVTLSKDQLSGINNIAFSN

Row | Binder | IC50/nM, plaque reduction, RSV A long on HEp-2 cells (Table 2, Cell fusion inhibition activity) [nM]
1 | B1 | 11.3
2 | B2 | 14.8
3 | B3 | 17.6
4 | B4 | 12.8
5 | B5 | 14.6
6 | B6 | 9.9
7 | B7 | 12.2
8 | B8 | 13
9 | B9 | 11.7
10 | B10 | 25.7
11 | B11 | 28.7
12 | B12 | 19.8
13 | B13 | 14.9
14 | B14 | 9.9
15 | B15 | 14.6
16 | B16 | 15.1
17 | B17 | 10.3
18 | B18 | 12.4
19 | B19 | 19.3

These binders were tested against F protein of hMPV virus strain A2 (human metapneumovirus (hMPV) A2) (assay: cell-based or functional assay).

Row | Binder | EC50 (nM), plaque reduction, hMPV A2 on Vero cells [nM]
20 | B1 | 88.4
21 | B2 | 11.7
22 | B3 | 8.78
23 | B4 | 103
24 | B5 | 128
25 | B6 | 18.9
26 | B7 | 200
27 | B8 | 11.7
28 | B9 | 13.8
29 | B10 | 78.3
30 | B11 | 86.4
31 | B12 | 7.47
32 | B13 | 94.8
33 | B14 | 18.8
34 | B15 | 11.2
35 | B16 | 13.3
36 | B17 | 7.35
37 | B18 | 58.6
38 | B19 | 41.6

These binders were tested against F protein of hMPV virus strain B1 (human metapneumovirus (hMPV) B1) (assay: cell-based or functional assay).

Row | Binder | EC50 (nM), plaque reduction, hMPV B1 on Vero cells [nM]
39 | B1 | 18
40 | B2 | 9.46
41 | B3 | 3.61
42 | B4 | 2.85
43 | B5 | 16.6
44 | B6 | 5.36
45 | B7 | 13.1
46 | B8 | 6.18
47 | B9 | 7.47
48 | B10 | 10.5
49 | B11 | 38.1
50 | B12 | 4.27
51 | B13 | 51.3
52 | B14 | 3.82
53 | B15 | 4.92
54 | B16 | 5.95
55 | B17 | 4.5
56 | B18 | 13.8
57 | B19 | 11.1

What follows are binders tested against F protein of hPIV Type 3 (hPIV3 C243) (human Parainfluenza Virus type 3 (hPIV3 …)) (assay: cell-based or functional assay).

Row | Binder | EC50 (nM), plaque reduction, hPIV3 C243 on LLC-MK2 cells [nM]
58 | B1 | 65.4
59 | B2 | 71.1
60 | B3 | 52.6
61 | B4 | 1.35
62 | B5 | 26.4
63 | B6 | 31.4
64 | B7 | 36.3
65 | B8 | 35.6
66 | B9 | 22.2
67 | B10 | 27.2
68 | B11 | 29.4
69 | B12 | 59.5
70 | B13 | 48.2
71 | B14 | 18.8
72 | B15 | 21.3
73 | B16 | 34.8
74 | B17 | 59
75 | B18 | 54.4
76 | B19 | 26.3
